Columns and labels:
Aβ1-42 polypeptide [1] = target: T1, Aβ1-42 polypeptide (human); assay: ELISA EC50 on Aβ42 monomer, 2 ml transient transfection; table note: '-' means no combination; expression 61 mg/L
T1 construct: Synthetic peptide; also called Aβ1-42 monomer; Aβ monomer

Aβ1-42 polypeptide [2] = target: T1, Aβ1-42 polypeptide; assay: ELISA EC50 on Aβ42 monomer, 2 ml transient transfection; table note: '-' means no combination; expression 60 mg/L
Aβ1-42 polypeptide [3] = target: T1, Aβ1-42 polypeptide; assay: ELISA EC50 on Aβ42 monomer, 2 ml transient transfection; table note: '-' means no combination; expression 32.1 mg/L
Aβ1-42 polypeptide [4] = target: T1, Aβ1-42 polypeptide; assay: ELISA EC50 on Aβ42 monomer, 2 ml transient transfection; table note: '-' means no combination; expression 68.2 mg/L
Aβ1-42 polypeptide [5] = target: T1, Aβ1-42 polypeptide; assay: ELISA EC50 on Aβ42 monomer, 2 ml transient transfection; table note: '-' means no combination; expression 68.4 mg/L
Aβ1-42 polypeptide [6] = target: T1, Aβ1-42 polypeptide; assay: ELISA EC50 on Aβ42 monomer, 2 ml transient transfection; table note: '-' means no combination; expression 6.14 mg/L
Aβ1-42 polypeptide [7] = target: T1, Aβ1-42 polypeptide; assay: ELISA EC50 on Aβ42 monomer, 2 ml transient transfection; table note: '-' means no combination; expression 7.72 mg/L

T1 sequence (peptide, as listed by the source): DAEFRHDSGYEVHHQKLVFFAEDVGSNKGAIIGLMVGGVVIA

B1: 066-4.26.14H1L2 (antibody, human IgG1, V domains shown)
VH: EVQLVESGGGLVKPGGSLRLSCAASGFTFRSYAMSWVRQAPGKGLEWVASISTTSNTYYPDSVKGRFTTSRDNAKNSLYLQMNSLRAEDTAVYYCGRGVITNQAWFAYWGQGTLVTVSS
VL: DIVLTQSPATLSVSPGERATLSCRASQSISNNLHWYQQKPGQAPRLLIKYASQSISGIPARFSGSGSGTDFTLTISSLQSEDFAVYFCQQSNSWPLTFGGGTKVEIKR
notes: Humanized full-length antibody; human IgG1 heavy constant and human kappa light constant (vectors pGS003-hIgG1CH, pGS003-hIgKCL)
binding result (Aβ1-42 polypeptide [1]): no binding

B2: 066-4.26.14H1L1 (antibody, human IgG1, V domains shown)
VH: EVQLVESGGGLVKPGGSLRLSCAASGFTFRSYAMSWVRQAPGKGLEWVASISTTSNTYYPDSVKGRFTTSRDNAKNSLYLQMNSLRAEDTAVYYCGRGVITNQAWFAYWGQGTLVTVSS
VL: DIVLTQSPATLSVSPGERVTLSCRASQSISNNLHWYQQKSGQAPRLLIKYASQSISGIPSRFSGSGSGTDFTLTISSLQSEDFAVYFCQQSNSWPLTFGGGTQVEIKR
notes: as for B1
binding result (Aβ1-42 polypeptide [2]): no binding

B3: 066-4.26.14H1L4 (antibody, human IgG1, V domains shown)
VH: EVQLVESGGGLVKPGGSLRLSCAASGFTFRSYAMSWVRQAPGKGLEWVASISTTSNTYYPDSVKGRFTTSRDNAKNSLYLQMNSLRAEDTAVYYCGRGVITNQAWFAYWGQGTLVTVSS
VL: EIVLTQSPGTLSLSPGERATLSCRASQSISNNLHWYQQKPGQAPRLLIKYASQSISGIPDRFSGSGSGTDFTLTISRLEPEDFAVYYCQQSNSWPLTFGGGTKVEIKR
notes: as for B1
binding result (Aβ1-42 polypeptide [3]): no binding

B4: 066-4.26.14H1L3 (antibody, human IgG1, V domains shown)
VH: EVQLVESGGGLVKPGGSLRLSCAASGFTFRSYAMSWVRQAPGKGLEWVASISTTSNTYYPDSVKGRFTTSRDNAKNSLYLQMNSLRAEDTAVYYCGRGVITNQAWFAYWGQGTLVTVSS
VL: DIVLTQSPDFQSVTPKEKVTISCRASQSISNNLHWYQQKPDQSPKLLIKYASQSISGIPSRFSGSGSGTDFTLTINSLEAEDAAAYFCQQSNSWPLTFGPGTKVEIKR
notes: as for B1
binding result (Aβ1-42 polypeptide [4]): no binding

B5: 066-4.26.14H1L5 (antibody, human IgG1, V domains shown)
VH: EVQLVESGGGLVKPGGSLRLSCAASGFTFRSYAMSWVRQAPGKGLEWVASISTTSNTYYPDSVKGRFTTSRDNAKNSLYLQMNSLRAEDTAVYYCGRGVITNQAWFAYWGQGTLVTVSS
VL: EIVLTQSPDFQSVTPKEKVTITCRASQSISNNLHWYQQKPDQSPKLLIKYASQSISGVPSRFSGSGSGTDFTLTINSLEAEDAATYYCQQSNSWPLTFGQGTKVEIKR
notes: as for B1
binding result (Aβ1-42 polypeptide [5]): no binding

B6: 066-4.26.14H2L5 (antibody, human IgG1, kappa, V domains shown)
VH: EVQLVESGGGLVKPGGSLRLSCAASGFTFRSYAMSWVRQTPEKRLEWVASISTTSNTYYPDSVKGRFTTSRDNAKNSVYLQMSSLRAEDTAVYYCGRGVITNQAWFAYWGQGTTVTVSS
VL: EIVLTQSPDFQSVTPKEKVTITCRASQSISNNLHWYQQKPDQSPKLLIKYASQSISGVPSRFSGSGSGTDFTLTINSLEAEDAATYYCQQSNSWPLTFGQGTKVEIKR
notes: as for B1
binding result (Aβ1-42 polypeptide [6]): no binding

B7: 066-4.26.14H2L4 (antibody, human IgG1, kappa, V domains shown)
VH: EVQLVESGGGLVKPGGSLRLSCAASGFTFRSYAMSWVRQTPEKRLEWVASISTTSNTYYPDSVKGRFTTSRDNAKNSVYLQMSSLRAEDTAVYYCGRGVITNQAWFAYWGQGTTVTVSS
VL: EIVLTQSPGTLSLSPGERATLSCRASQSISNNLHWYQQKPGQAPRLLIKYASQSISGIPDRFSGSGSGTDFTLTISRLEPEDFAVYYCQQSNSWPLTFGGGTKVEIKR
notes: as for B1
binding result (Aβ1-42 polypeptide [7]): no binding
